The record followed here is patent publication US6492123.

Experiment [1] has as its target hen egg lysozyme (hen) (UniProt P00698). The experiment is described as follows: phage ELISA, 50 µl phage supernatant, anti-M13 detection; background 0.1.
The target is the same in experiment [2]. The experiment is described as follows: BIAcore, HEL coated chip.

Sequence of UniProt P00698 (P00698 19-147 limits assumed): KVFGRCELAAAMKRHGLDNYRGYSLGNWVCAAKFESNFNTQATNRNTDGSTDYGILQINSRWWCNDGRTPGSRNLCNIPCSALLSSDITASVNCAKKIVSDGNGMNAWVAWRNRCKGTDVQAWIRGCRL

“NQ11/D1.3/0 bispecific diabody displayed on phage (pHEN1) (bispecific antibody)” showed an absorbance signal in the experiment with hen egg lysozyme (hen) [1] of 2.8.
chimaeric FabD1.3 yielded an off-rate (koff) in the experiment with hen egg lysozyme (hen) [2] of 0.003 s⁻¹.
In turn, “construct VI bispecific NQ11/D1.3 diabody, 5-residue linkers (bispecific antibody)” had a koff with hen egg lysozyme (hen) [2] of 0.0022 s⁻¹.
